Data taken from patent US20180355013A1.

Target: NKG2D ligands on NKG2D ligand-expressing cells
Assay: summary of the Examples; assay not given

fold improved binding avidity against monomeric NKG2D-Fc chimeras: < 100 fold
Substance: hNKG2Dx2-hIgG1 (Fc fusion)
